Experimental data published in patent US8586538B2, “Method of treating a patient suffering from a bleeding disorder comprising administering an antibody against the A3-C1 of FVIII” (Stichting Sanquin Bloedvoorziening, priority 2002, dated 2013).
Where “and” joins values, the source holds several entries; their conditions need not be identical. Equal entries are not always repeated. No end group written: not given here.

T1: interaction between FVIII light chain and LRP cluster IV (Homo sapiens, UniProt P00451)
T1 construct: made in house; host or cells: LRP cluster IV: BHK cells; FVIII light chain: plasma-derived
T1 sequence (P00451 1668-2351 limits assumed): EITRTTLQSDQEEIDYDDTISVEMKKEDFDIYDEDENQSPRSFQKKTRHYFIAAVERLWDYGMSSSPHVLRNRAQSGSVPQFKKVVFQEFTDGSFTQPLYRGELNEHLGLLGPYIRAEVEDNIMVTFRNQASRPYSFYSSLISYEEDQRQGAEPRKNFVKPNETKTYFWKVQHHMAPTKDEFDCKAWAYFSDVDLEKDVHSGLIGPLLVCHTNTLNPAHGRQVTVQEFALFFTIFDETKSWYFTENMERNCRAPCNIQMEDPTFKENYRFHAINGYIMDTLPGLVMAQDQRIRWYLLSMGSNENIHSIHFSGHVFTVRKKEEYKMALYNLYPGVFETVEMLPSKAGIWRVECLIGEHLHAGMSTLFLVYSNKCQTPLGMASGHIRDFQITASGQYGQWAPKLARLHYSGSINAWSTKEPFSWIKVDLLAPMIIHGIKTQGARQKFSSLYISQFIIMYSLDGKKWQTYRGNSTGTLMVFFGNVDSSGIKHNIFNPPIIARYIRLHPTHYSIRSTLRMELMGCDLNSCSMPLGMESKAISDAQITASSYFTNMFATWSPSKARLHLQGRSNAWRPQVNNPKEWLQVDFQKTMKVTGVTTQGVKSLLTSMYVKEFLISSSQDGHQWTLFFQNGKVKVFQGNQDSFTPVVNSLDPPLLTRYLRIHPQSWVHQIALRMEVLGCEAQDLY

T2: interaction between FVIII light chain and LRP cluster II (Homo sapiens, UniProt Q07954)
T2 construct: Recombinant LRP clusters II or IV (1 pmol/well) were adsorbed onto microtiter wells; made in house; host or cells: LRP cluster II: BHK cells; FVIII light chain: plasma-derived
T2 sequence (Q07954 803-1182): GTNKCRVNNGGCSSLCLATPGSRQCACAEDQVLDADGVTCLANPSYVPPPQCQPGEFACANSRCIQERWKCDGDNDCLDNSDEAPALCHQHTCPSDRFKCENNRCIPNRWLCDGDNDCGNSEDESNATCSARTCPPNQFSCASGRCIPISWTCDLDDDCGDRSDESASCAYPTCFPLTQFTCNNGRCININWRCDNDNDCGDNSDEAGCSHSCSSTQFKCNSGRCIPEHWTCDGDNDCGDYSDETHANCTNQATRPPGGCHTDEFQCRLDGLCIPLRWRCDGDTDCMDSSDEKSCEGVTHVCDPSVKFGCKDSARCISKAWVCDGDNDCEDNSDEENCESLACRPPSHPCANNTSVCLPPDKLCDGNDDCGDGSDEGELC

T3: interaction between FVIII light chain and LRP cluster II (Homo sapiens, UniProt P00451)
T3 construct: Recombinant LRP clusters II or IV (1 pmol/well) were adsorbed onto microtiter wells; made in house; host or cells: LRP cluster II: BHK cells; FVIII light chain: plasma-derived
T3 sequence (P00451 1668-2351): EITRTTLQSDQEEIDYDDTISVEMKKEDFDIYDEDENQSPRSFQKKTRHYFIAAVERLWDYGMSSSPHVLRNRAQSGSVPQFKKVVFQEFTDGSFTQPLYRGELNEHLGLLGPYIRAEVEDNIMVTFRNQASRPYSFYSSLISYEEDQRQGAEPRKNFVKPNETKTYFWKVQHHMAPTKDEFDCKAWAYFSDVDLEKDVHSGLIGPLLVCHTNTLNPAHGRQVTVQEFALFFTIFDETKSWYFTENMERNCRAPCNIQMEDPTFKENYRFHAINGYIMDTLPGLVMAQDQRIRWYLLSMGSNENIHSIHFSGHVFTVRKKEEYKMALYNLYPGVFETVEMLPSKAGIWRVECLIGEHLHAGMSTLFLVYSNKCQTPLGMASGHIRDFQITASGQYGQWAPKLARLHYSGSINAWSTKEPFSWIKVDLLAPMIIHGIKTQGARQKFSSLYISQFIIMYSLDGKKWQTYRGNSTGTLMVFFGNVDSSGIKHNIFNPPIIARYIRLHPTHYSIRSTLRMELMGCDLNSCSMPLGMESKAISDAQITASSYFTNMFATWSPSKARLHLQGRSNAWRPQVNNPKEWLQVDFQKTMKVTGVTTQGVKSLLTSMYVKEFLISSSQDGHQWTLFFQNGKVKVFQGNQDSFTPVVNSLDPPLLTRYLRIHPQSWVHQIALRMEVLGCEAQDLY


Tests used:
[1] = molecular target: T1, interaction between FVIII light chain and LRP cluster IV; assay: Solid-phase competition: FVIII light chain binding to immobilized LRP cluster IV; details: FVIII light chain 25 nM; competitor 0-600 nM
Description: FIG. 2. Binding of FVIII light chain to recombinant LRP fragments. FVIII light chain (LCh) (25 nM) was incubated with immobilized LRP cluster IV (1 pmol/well) in a volume of 50 μl in 150 mM NaCl, 5 mM CaCl2, 1% (w/v) HSA, 0.1% Tween® 20, and 50 mM Tris (pH 7.4) in the presence or absence of various concentrations of recombinant LRP cluster II (0-600 nM) for 2 h at 37° C. After washing with the same buffer, bound FVIII light chain was quantified by incubation with peroxidase-conjugated anti-FVIII antibody CLB-CAg 12 for 15 min at 37° C. Residual binding is expressed as the percentage of binding in the absence of competitor and is corrected for nonspecific binding (less than 5% relative to binding to LRP cluster II-immobilized wells). Inset, serial dilutions of FVIII light chain were incubated with immobilized LRP cluster II (1 pmol/well) in a volume of 50 μl in 150 mM NaCl, 5 mM CaCl2, 1% (w/v) HSA, 0.1% Tween® 20, and 50 mM Tris (pH 7.4) for 2 h at 37° C. After washing with the same buffer, bound FVIII light chain was quantfied as described above. […]
Recombinant LRP clusters II or IV (1 pmol/well) were adsorbed onto microtiter wells in 50 mM NaHCO3 (pH 9.8) in a volume of 50 μl for 16 h at 4° C. […] Bound ligand was detected by incubating with peroxidase-conjugated monoclonal antibody CLB-CAg 12 in the same buffer for 15 min at 37° C. […] Residual FVIII binding was detected as described above. […]

[2] = molecular target: T2, interaction between FVIII light chain and LRP cluster II; assay: Solid-phase competition: FVIII light chain binding to immobilized LRP cluster II; details: FVIII light chain 25 nM; peptide 0-1 mM; 2 h at 37° C
Description: (§1) FIG. 4. Effect of scFv antibody fragments on the interaction between FVIII light chain and LRP. A, FVIII light chain (LCh) (25 nM) was incubated with immobilized LRP cluster II (1 pmol/well) in a volume of 50 μl in 150 mM NaCl, 5 mM CaCl2, 1% (w/v) HSA, 0.1% Tween® 20, and 50 mM Tris (pH 7.4) in the presence of various concentrations (0-100 nM) of scFv KM41 (closed circles) or scFv KM36 (open circles) for 2 h at 37° C. After washing with the same buffer, bound FVIII light chain was quantified by incubation with peroxidase-conjugated anti-FVIII antibody CLB-CAg 12 for 15 min at 37° C. Residual binding is expressed as the percentage of binding in the absence of competitor and is corrected for nonspecific binding (less than 5% relative to binding to LRP cluster II-immobilized wells). Data represent the mean±S.D. of three experiments. B, FVIII light chain (50 nM) was incubated with immobilized LRP (16 fmol/mm^2) as described in the legend of FIG. 1. Binding was assessed in the absence (curve 1) or in the presence of increasing concentrations of scFv KM41 (20, 60, 300, 500 nM, curves 2-5, respectively). Complexes were allowed to form for 30 min before SPR analysis.
(§2) FIG. 5. Effect of scFv KM33 on the interaction between FVIII light chain and LRP. FVIII light chain (LCh) (25 nM) was incubated with immobilized LRP cluster II (1 pmol/well) in a volume of 50 μl in 150 mM NaCl, 5 mM CaCl2, 1% (w/v) HSA, 0.1% Tween® 20, and 50 mM Tris (pH 7.4) in the presence of various concentrations (0-30 nM) of scFv KM36 (open circles) or scFv KM33 (closed circles) for 2 h at 37° C. After washing with the same buffer, bound FVIII Light chain was quantified by incubation with peroxidase-conjugated anti-FVIII antibody CLB-CAg 12 for 15 min at 37° C. Residual binding is expressed as the percentage of binding in the absence of competitor and is corrected for nonspecific binding (less than 5% relative to binding to cluster-coated wells). Data represent the mean±S.D. of three experiments.
(§3) Recombinant LRP clusters II or IV (1 pmol/well) were adsorbed onto microtiter wells in 50 mM NaHCO3 (pH 9.8) in a volume of 50 μl for 16 h at 4° C. Wells were blocked with 2% (w/v) HSA, 150 mM NaCl, 5 mM CaCl2, and 50 mM Tris (pH 7.4) in a volume of 200 μl for 1 h at 37° C. After three rapid washes (less than 5 seconds each) with 150 mM NaCl, 5 mM CaCl2, 0.1% (v/v) Tween® 20, and 50 mM Tris (pH 7.4), FVIII light chain or its derivatives were incubated at various concentrations in a volume of 50 μl in a buffer containing 150 mM NaCl, 5 mM CaCl2, 1% (w/v) HSA, 0.1% (v/v) Tween® 20, and 50 mM Tris (pH 7.4) for 2 h. at 37° C. Bound ligand was detected by incubating with peroxidase-conjugated monoclonal antibody CLB-CAg 12 in the same buffer for 15 min at 37° C. […] In competition experiments, FVIII light chain (25 nM) was incubated with wells containing immobilized LRP clusters, either in the presence or absence of serial dilutions of competitor in a volume of 50 μl for 2 h at 37° C. Residual FVIII binding was detected as described above. Data were corrected for binding to empty microtiter wells, which was less than 5% relative to binding to wells containing immobilized LRP clusters.
(§4) (Note to Table II: Effect of FVIII a3-A3-C1 fragment derived synthetic peptides on the interaction between FVIII light chain and LRP cluster II. FVIII light chain (25 nM) was incubated with immobilized LRP cluster II (1 pmol/well) in a volume of 50 μl in 150 mM NaCl, 5 mM CaCl2, 1% (w/v) HSA, 0.1% Tween® 20, and 50 mM Tris (pH 7.4) in the presence or absence of various concentrations of synthetic peptide (0-1 mM) for 2 h at 37° C. After washing with the same buffer, bound FVIII light chain was quantified by incubation with peroxidase-conjugated anti-FVIII antibody CLB-CAg 12 for 15 min at 37° C. Half-maximum inhibition constants (IC50) represent the mean values±S.D. of three experiments.)

FVIIIa-FIXa complex = FVIIIa-FIXa complex (Homo sapiens, UniProt P00451+P00740); details: by interfering with the assembly of the FVIIIa-FIXa complex; cited from earlier work
[3] = molecular target: T3, interaction between FVIII light chain and LRP cluster II; assay: Solid-phase competition: FVIII light chain binding to immobilized LRP cluster II; details: FVIII light chain 25 nM
Description: as §1, §2, §3, §4

[4] = Factor VIII clearance and recovery in vWF knock out mice; format: in vivo; details: for Factor VIII activity in plasma: Factor VIII 200 U/kg
Description: FIG. 8. According to Example II, mice were injected either with human FVIII alone, human FVIII in the presence of a control scFv-fragment (KM38) and with human FVIII in the presence of a scFv-fragment (KM33) specifically interfering with the putative FVIII-LRP interaction.
Experimental procedure: vWF knock out mice (decreased endogenous Factor VIII, 20% Factor VIII compared to healthy animals) were treated with human recombinant Factor VIII (Recombinate™; 200 U/kg) and recombinant scFv (KM33) in excess. (30 nM versus 3 nM Factor VIII in plasma). In control experiments, Factor VIII and a control scFv fragment (KM38) binding to a different domain as the proposed LRP binding
site on the Factor VIII molecule were used in the same concentrations. Infusion of recombinant FVIII without any addition was used to monitor the clearance of Factor VIII in this model system.
At defined time points (15, 30, 60, 120 and 240 minutes) after injection, blood was collected by heart puncture, plasma was subsequently isolated, shock frozen and analyzed for Factor VIII activity. Ten mice were used at each time point, plasma was diluted to 3 concentrations (1:20, 1:60 and 1:100) and analyzed in duplicate. Factor VIII levels were quantified by performing a quantitative ELISA.

Chain of FVIIIa-FIXa complex (P00740 47-191 limits assumed, one chain of several): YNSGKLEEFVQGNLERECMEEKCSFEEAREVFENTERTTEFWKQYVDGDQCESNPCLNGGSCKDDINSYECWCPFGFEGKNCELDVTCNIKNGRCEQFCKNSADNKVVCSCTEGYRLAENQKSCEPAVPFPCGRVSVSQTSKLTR

Row | IC50 [2] | Molecule | Inhibition of FVIII procoagulant activity (FVIIIa-FIXa complex) | also measured
1 | – | LRP cluster II: recombinant LRP ligand binding cluster II expressed in BHK cells | – | Inhibition of FVIII light chain binding to immobilized LRP cluster IV [1]: dose-dependent inhibition
2 | > 1000 µM | EDPTFKENYRFH [Residues 1908-1919] | – | –
3 | > 1000 µM | TENMERNCRA [Residues 1892-1901] | – | –
4 | > 1000 µM | KLARLHYSG [Residues 2049-2057] | – | –
5 | > 1000 µM | HMAPTKDEFDCKA [Residues 1822-1834] | – | –
6 | ~16.8 µM and 16.8 µM | YFWKVQHHMAPTKDEFDCKA [Residues 1815-1834] | effective inhibitors | –
7 | ~1.9 µM and 1.9 µM | KNFVKPNETKTYFWK [Residues 1804-1818] | effective inhibitors | –
8 | > 1000 µM | TVRKKEEYK [Residues 1964-1972] | – | –
9 | > 1000 µM | WDYGMSSSPHVLRNR [Residues 1707-1721] | – | –
10 | – | scFv KM33: scFv antibody fragment against FVIII light chain; does not require A3 domain region 1778-1818; LRP blocking (protein) scFv: EVQLVESGGGVVQPGRSLRLSCVDSGLTFSSYGMHWVRQAPGAGLEWVAVISYDGNDKYYADSVKGRFAISRDNAKNTLYLQMNSLTIEDTAVYYCAKDLIESNIAEAFWGQGTLVTVSSGGGGSGGGGSGGGGSDIQMTQSPSSLSASVGDTVTIACRASRDIRNDLAWYQQKPGKAPKLLIYATSRLQSGVPSRFSGSGSFTDFTLTINSLQPDDSATYYCLQDSDYPLTFGGGTKVDIKRAAAEQKLISEEDLNGAAHHHHHH | effective inhibitors | Effect on binding of FVIII light chain to immobilized LRP cluster II [3]: effectively inhibited; Factor VIII recovery ([4]; 15 minutes after injection): 30.4%; Factor VIII activity in plasma ([4]; 15 minutes after injection): about 0.8 U/mL; Factor VIII recovery ([4]; 30 minutes after injection): 20%; Factor VIII activity in plasma ([4]; 30 minutes after injection): 0.5 U/mL; Factor VIII recovery ([4]; 60 minutes after injection): 14%; Factor VIII activity in plasma ([4]; 60 minutes after injection): 0.35 U/mL; FVIII activity levels ([4]; four hours after injection): reached the background activity of mouse Factor VIII
